From the supplement of paper PMC10126150 come the findings set out here.

± gives the standard deviation of the averaged measurements.
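Also: ATP exposure 15 min at 22 °C before imaging.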

The test system of the data set is ATP. Put plainly: switch fluorescence ratio, 500 uM ATP over buffer (Cy3 cluster intensity, sum of 5 cycles each) (fold (ratio)); higher = stronger signal-on switching upon ATP binding; sequences stand for … in TCGTCGGCAGCGTCAGATGTGTATAAGAGACAGTTTTTTTTTTTTTTTTTTTTTTTTT…TC. To be noted: aptamer strand: ATP DNA aptamer (quencher-CACCTGGGGGAGTATTGCGGAGGAAGG + anchor), 100 nM annealed; ATP concentration: 500 uM. The procedure, abridged:
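Clusters carrying Cy3-labelled switching strands on a modified Illumina MiSeq flow-cell were annealed to 100 nM quencher-labelled ATP aptamer and imaged in selection buffer. They were imaged again after 15 min with 500 uM ATP at 22 °C, over five buffer/ATP cycles with NaOH stripping and re-annealing in between. For each cluster, the fluorescence ratio is the summed Cy3 intensity of the target cycles divided by that of the buffer cycles, averaged per switch-domain sequence. Clusters outside 100-1000 RFU were left out.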
On to AGTTAGGGCG, for which the switch fluorescence ratio was 1.04 ± 0.058.
Next, AGACCTTGGT: 0.963 ± 0.03.
Turning to AAAAGGAAT, the switch fluorescence ratio turned out to be 1.001 ± 0.009.
For GGGAAAGGAT the value was 1.02 ± 0.033; for TAGGAGGCGG, 0.958 ± 0.039.
In the case of ATTGTATTTG, the switch fluorescence ratio was 1.01 ± 0.034.
Next, CATAGTGATC: 1.051 ± 0.0011.
With GGGGTACACG, the switch fluorescence ratio came out at 0.979 ± 0.027.
For AGGATTTGGT the value was 0.984 ± 0.031; for CGAGGGGGG, 0.997 ± 0.015; for TCATTTCCGG, 1.046 ± 0.0072.
As for GCGGTGGCGG, the switch fluorescence ratio amounted to 0.987 ± 0.039.
On to AAAAAATAGG, for which the switch fluorescence ratio is 1.01 ± 0.028.
With TCGGAGCTTG, the switch fluorescence ratio stood at 1.16 ± 0.064.
Next, TATAAATTGG: 1 ± 0.032; AACTATGGTA: 0.992 ± 0.033.
Next, TCCGTAAATT: 1.14 ± 0.013; GCTGAGAGTC: 0.992 ± 0.034.
For ATAGGTATGA the value was 0.988 ± 0.01.
As for GGTTTAAAGA, the switch fluorescence ratio was 1 ± 0.038.
Regarding ACAGGTAAA, the switch fluorescence ratio turned out to be 1.02 ± 0.028.
For AATTATTTT, the switch fluorescence ratio was determined as 0.993 ± 0.02.
For TGGGGGACGA the value was 0.954 ± 0.032.
Next, GCGATTGGGG: 0.9705 ± 0.0044; GAGAGTTATT: 0.988 ± 0.04; GTAGTACCGG: 1.02 ± 0.028.
As to TCCTTTTGG, the switch fluorescence ratio stood at 0.996 ± 0.044.
For AAGTGCCTGC the value was 1.015 ± 0.0056.
For GGGTCGGCTA the value was 1.02 ± 0.035; for AGAGACACGG, 1.03 ± 0.079; for CCTAGGTAAA, 0.993 ± 0.034.
As to ATGGTCCATG, the switch fluorescence ratio is 0.995 ± 0.022.
Turning to CACTAATTTT, the switch fluorescence ratio amounted to 1.03 ± 0.019.
For the sequence TGGTCGCAGG, the switch fluorescence ratio came to 0.9899 ± 0.005.
As for AGGTCCGGTG, the switch fluorescence ratio was found to be 1.031 ± 0.0096.
For AAGTTTTAGG the value was 0.988 ± 0.027; for ATAGGCGGAG, 0.965 ± 0.02; for GACATCCGGC, 1.05 ± 0.036.
For GGATTAAGTG the value was 0.9616 ± 0.006; for CAATTGGGGT, 1.03 ± 0.06.
For AGTTAGTAAG the value was 1.01 ± 0.04; for ATGATGATGA, 1.03 ± 0.02.
As for TTTGACGATT, the switch fluorescence ratio amounted to 1 ± 0.049.
As to TTGCGCTACG, the switch fluorescence ratio is 1.01 ± 0.011.
For TTTTGTGAAG the value was 0.963 ± 0.035; for AGGCTCCGAG, 1.03 ± 0.011.
In the case of AGGATTTGAG, the switch fluorescence ratio amounted to 1 ± 0.013.
GGCTAGGGGT: the switch fluorescence ratio was determined as 1.57 ± 0.022.
For the sequence CGTCATTAAA, the switch fluorescence ratio was 0.984 ± 0.023.
For TCATGGAGAT the value was 0.965 ± 0.033.
Take TTTATGTCTA: the switch fluorescence ratio came to 1.02 ± 0.024.
Next, CCAGGTATGA: 1.03 ± 0.035.
For TTTTTGAGGT the value was 1 ± 0.025; for TAGTCGCGTA, 1.05 ± 0.035; for TGGGGGATGT, 1.01 ± 0.013.
Regarding TTAAGCACCT, the switch fluorescence ratio stood at 1.304 ± 0.013.
Next, TTTATTTTGT: 1 ± 0.038.
With ATAAGGAGGT, the switch fluorescence ratio came to 1.012 ± 0.0081.
Next, GGGCGTACGG: 1.06 ± 0.045; GCTATCTGCT: 0.976 ± 0.06.
Regarding TTCATCGGTT, the switch fluorescence ratio stood at 0.9922 ± 0.0022.
On to TTGTATATGC, for which the switch fluorescence ratio is 1.16 ± 0.23.
With AAAGGATGGG, the switch fluorescence ratio was 1 ± 0.016.
For AGGGATTGCG the value was 0.9971 ± 0.0093.
For ACCTGGCAAA the value was 1.09 ± 0.043; for GCGTTAATGG, 1 ± 0.02.
Regarding TATTGTCCTT, the switch fluorescence ratio turned out to be 1.019 ± 0.0056.
GGTCTTCCGC: the switch fluorescence ratio stood at 1.14 ± 0.088.
For TCGTAGAGGG the value was 1.008 ± 0.0013.
With GAAAGAAATG, the switch fluorescence ratio is 0.9994 ± 0.003.
Turning to GGCTACAGCG, the switch fluorescence ratio is 0.987 ± 0.0032.
Next, ATATGTGGCG: 0.932 ± 0.011; AAAGGATATC: 1.036 ± 0.0028; GAAATCTTTT: 1.07 ± 0.17.
Take GGATAGTGTT: the switch fluorescence ratio was 0.988 ± 0.016.
For the sequence GTAGTAAGGC, the switch fluorescence ratio turned out to be 2.23 ± 0.54.
In the case of GATCGTTGGT, the switch fluorescence ratio was 0.991 ± 0.021.
For AAGGGAGGGG the value was 0.987 ± 0.028.
